Assay results: publication doi:10.1101/2025.06.27.661840 (bioRxiv, 2025)
Where two headings read alike, the source gives them in different places.

Tests used:
Experiment in all cases: cryo-EM structure
[1] = biological target: large tegument protein VP1/2 (ORF22) (Varicella-zoster virus (parental Oka strain, recombinant pOka-TK-RFP)) (UniProt P09278)
cryo-EM structure [2] = biological target: the molecule itself
cryo-EM structure [3] = biological target: the molecule itself; remark: listed apart in the source

| Molecule | stoichiometry N (cryo-EM structure [2]) | other results |
| --- | --- | --- |
| large tegument protein VP1/2 (ORF22), P09278 1-2763 |  | stoichiometry N [1]: 2 |
| major capsid protein (MCP; ORF40) (natural protein, UniProt P09245 1-1396, looked up) MTTVSCPANVITTTESDRIAGLFNIPAGIIPTGNVLSTIEVCAHRCIFDFFKQIRSDDNSLYSAQFDILLGTYCNTLNFVRFLELGLSVACICTKFPELAYVRDGVIQFEVQQPMIARDGPHPVDQPVHNYMVKRIHKRSLSAAFAIASEALSLLSNTYVDGTEIDSSLRIRAIQQMARNLRTVLDSFERGTADQLLGVLLEKAPPLSLLSPINKFQPEGHLNRVARAALLSDLKRRVCADMFFMTRHAREPRLISAYLSDMVSCTQPSVMVSRITHTNTRGRQVDGVLVTTATLKRQLLQGILQIDDTAADVPVTYGEMVLQGTNLVTALVMGKAVRGMDDVARHLLDITDPNTLNIPSIPPQSNSDSTTAGLPVNARVPADLVIVGDKLVFLEALERRVYQATRVAYPLIGNIDITFIMPMGVFQANSMDRYTRHAGDFSTVSEQDPRQFPPQGIFFYNKDGILTQLTLRDAMGTICHSSLLDVEATLVALRQQHLDRQCYFGVYVAEGTEDTLDVQMGRFMETWADMMPHHPHWVNEHLTILQFIAPSNPRLRFELNPAFDFFVAPGDVDLPGPQRPPEAMPTVNATLRIINGNIPVPLCPISFRDCRGTQLGLGRHTMTPATIKAVKDTFEDRAYPTIFYMLEAVIHGNERNFCALLRLLTQCIRGYWEQSHRVAFVNNFHMLMYITTYLGNGELPEVCINIYRDLLQHVRALRQTITDFTIQGEGHNGETSEALNNILTDDTFIAPILWDCDALIYRDEAARDRLPAIRVSGRNGYQALHFVDMAGHNFQRRDNVLIHGRPVRGDTGQGIPITPHHDREWGILSKIYYYIVIPAFSRGSCCTMGVRYDRLYPALQAVIVPEIPADEEAPTTPEDPRHPLHAHQLVPNSLNVYFHNAHLTVDGDALLTLQELMGDMAERTTAILVSSAPDAGAATATTRNMRIYDGALYHGLIMMAYQAYDETIATGTFFYPVPVNPLFACPEHLASLRGMTNARRVLAKMVPPIPPFLGANHHATIRQPVAYHVTHSKSDFNTLTYSLLGGYFKFTPISLTHQLRTGFHPGIAFTVVRQDRFATEQLLYAERASESYFVGQIQVHHHDAIGGVNFTLTQPRAHVDLGVGYTAVCATAALRCPLTDMGNTAQNLFFSRGGVPMLHDNVTESLRRITASGGRLNPTEPLPIFGGLRPATSAGIARGQASVCEFVAMPVSTDLQYFRTACNPRGRASGMLYMGDRDADIEAIMFDHTQSDVAYTDRATLNPWASQKHSYGDRLYNGTYNLTGASPIYSPCFKFFTPAEVNTNCNTLDRLLMEAKAVASQSSTDTEYQFKRPPGSTEMTQDPCGLFQEAYPPLCSSDAAMLRTAHAGETGADEVHLAQYLIRDASPLRGCLPLPR | 6 |  |
| capsid triplex protein 2 (TRX2; ORF41) (natural protein, UniProt P09291 1-316, looked up) MAMPFEIEVLLPGELSPAETSALQKCEGKIITFSTLRHRASLVDIALSSYYINGAPPDTLSLLEAYRMRFAAVITRVIPGKLLAHAIGVGTPTPGLFIQNTSPVDLCNGDYICLLPPVFGSADSIRLDSVGLEIVFPLTIPQTLMREIIAKVVARAVERTAAGAQILPHEVLRGADVICYNGRRYELETNLQHRDGSDAAIRTLVLNLMFSINEGCLLLLALIPTLLVQGAHDGYVNLLIQTANCVRETGQLINIPPMPRIQDGHRRFPIYETISSWISTSSRLGDTLGTRAILRVCVFDGPSTVHPGDRTAVIQV | 2 |  |
| capsid vertex-specific component 2 (CVC2; ORF34) (natural protein, UniProt P09287 1-579, looked up) MTARYGFGSISFPNKCGIFLSTTKNFIAPNFPIHYWTAPAFELRGRMNPDLEKNTLTLKNAAAVAALDNLRGETITLPTEIDRRLKPLEEQLTRMAKVLDSLETAAAEAEEADAQSEECTRTEIIRNESIHPEVQIAKNDAPLQYDTNFQVDFITLVYLGRARGNNSPGIVFGPWYRTLQERLVLDRPVAARGVDCKDGRISRTFMNTTVTCLQSAGRMYVGDRAYSAFECAVLCLYLMYRTSNSVHEPQVSSFGNLIEHLPEYTETFVNYMTTHENKNSYQFCYDRLPRDQFHARGGRYDQGALTSHSVMDALIRLQVLPPAPGQFNPGVNDIIDRNHTAYVDKIQQAAAAYLERAQNVFLMEDQTLLRLTIDTITALLLLRRLLWNGNVYGDKLKNNFQLGLIVSEATGTPTNNVILRGATGFDGKFKSGNNNFQFLCERYIAPLYTLNRTTELTEMFPGLVALCLDAHTQLSRGSLGRTVIDISSGQYQDRLISLIALELEHRRQNVTSLPIAAVVSIHDSVMLQYERGLGMLMHQPRVRAALEESRRLAQFNVNSDYDLLYFVCLGVIPQFASTP | 2 |  |
| VZV portal protein (pORF54) (natural protein, UniProt P09302 1-769, looked up) MAEITSLFNNSSGSEEKRIASSVSIDQGLNGSNPNDQYKNMFDIYWNEYAPDIGFCTFPEEDGWMLIHPTTQSMLFRKILAGDFGYTDGQGIYSAVRSTETVIRQVQATVLMNALDATRYEDLAADWEHHIQQCNLHAGALAERYGLCGESEAVRLAHQVFETWRQTLQSSLLEFLRGITGCLYTSGLNGRVGFAKYVDWIACVGIVPVVRKVRSEQNGTPAPLNTYMGQAAELSQMLKVADATLARGAAVVTSLVECMQNVAIMDYDRTRLYYNYNRRLIMAKDDVTGMKGECLVVWPPVVCGEGVVFDSPLQRLSGEVLACYALREHARVCQVLNTAPLRVLIGRRNEDDRSHSTRAVDRIMGENDTTRAGSAASRLVKLIVNLKNMRHVGDITETVRSYLEETGNHILEGSGSVDTSQPGFGKANQSFNGGAMSGTTNVQSAFKTSVVNSINGMLEGYVNNLFKTIEGLKDVNSDLTERLQFKEGELKRLREERVKIKPSKGSHITMAEETRIADLNHEVIDLTGIIGDDAYIANSFQSRYIPPYGDDIKRLSELWKQELVRCFKLHRVNNNQGQEISVSYSNASISLLVAPYFSFILRATRLGFLVTQSEVHRSEEELCQAIFKKARTESYLSQIRILYEMQVRAEVIKRGPRRTPSPSWGLPDPTEDDERIPEPNKINNQYMHVGYKNLSHFMKGHPPERLRVHKVNAADSTLLDKIRANRRRGDGRWDVRNKYTQHFRLQRNDRQLTNTSRRGVGCERRDRRS |  | stoichiometry N (cryo-EM structure [3]): 12 |
